Data published in patent US20210130436A1 (published 2021).
Changes are numbered by the printed parent chain. Names may count otherwise.

B1: variant CD80 IgV-Fc Q33R/E35D/M38I/M47L/V68M (Fc fusion, not shown: small tags and cut ends; a dimerising Fc or GST)
chain: VIHVTKEVKEVATLSCGHNVSVEELAQTRIYWRKDKKIVLTMMSGDLNIWPEYKNRTIFDITNNLSIMILALRPSDEGTYECVVLKYEKDAFKREHLAEVTLSVKAD
B2: variant CD80 IgV-Fc Q27L/Q33L/E35D/T41S/M47V/N48K/V68M/L85M (Fc fusion, not shown: small tags and cut ends; a dimerising Fc or GST)
chain: B1 chain with Q27L, R33L, I38M, T41S, L47V, N48K, L85M
B3: variant CD80 IgV-Fc E35D/M47L/V68M/E95V/L97Q (Fc fusion, not shown: small tags and cut ends; a dimerising Fc or GST)
chain: B1 chain with R33Q, I38M, E95V, L97Q
B4: variant CD80 IgV-Fc E35D/D46E/M47L/V68M/T79M/L85M/L97Q (Fc fusion, not shown: small tags and cut ends; a dimerising Fc or GST)
chain: B1 chain with R33Q, I38M, D46E, T79M, L85M, L97Q
B5: variant CD80 IgV-Fc E24D/E35D/M47L/V68M/E95V/L97Q (Fc fusion, not shown: small tags and cut ends; a dimerising Fc or GST)
chain: B1 chain with E24D, R33Q, I38M, E95V, L97Q
B6: variant CD80 IgV-Fc (inert) H18Y/A26P/E35D/M47Y/V68I/A71G/D90G (Fc fusion)
chain: B1 chain with H18Y, A26P, R33Q, I38M, L47Y, M68I, A71G, D90G
notes: not shown: inert human IgG1 Fc
B7: variant CD80 IgV-Fc (inert) H18Y/E35D/M47V/V68M/A71G (Fc fusion)
chain: B1 chain with H18Y, R33Q, I38M, L47V, A71G
notes: Fc fusions are dimeric by the general description; not shown: inert human IgG1 Fc
B8: variant CD80 IgV-Fc (inert) H18V/A26Q/E35D/M47V/V68L/A71G/D90G (Fc fusion)
chain: B1 chain with H18V, A26Q, R33Q, I38M, L47V, M68L, A71G, D90G
notes: as for B6
B9: variant CD80 IgV-Fc (inert) H18Y/A26P/E35D/M47I/V68M/A71G (Fc fusion)
chain: B1 chain with H18Y, A26P, R33Q, I38M, L47I, A71G
notes: as for B6
B10: variant CD80 IgV-Fc (inert) H18Y/E35D/M47V/V68L/A71G/D90G (Fc fusion)
chain: B1 chain with H18Y, R33Q, I38M, L47V, M68L, A71G, D90G
notes: as for B6
B11: variant CD80 IgV-Fc (inert) H18V/A26K/E35D/M47L/V68M/A71G (Fc fusion)
chain: B1 chain with H18V, A26K, R33Q, I38M, A71G
notes: as for B6
B12: variant CD80 IgV-Fc (inert) H18V/A26P/E35D/M47L/V68M/A71G (Fc fusion)
chain: B1 chain with H18V, A26P, R33Q, I38M, A71G
notes: as for B6
B13: variant CD80 IgV-Fc E35D/M47L/A71G/L97Q (Fc fusion, not shown: a dimerising Fc or GST)
chain: B1 chain with R33Q, I38M, M68V, A71G, L97Q
B14: E35D/M47I/T62S/L85Q/E88D CD80 IgV-Fc (Fc fusion, not shown: a dimerising Fc or GST)
chain: B1 chain with R33Q, I38M, L47I, T62S, M68V, L85Q, E88D
B15: H18Y/E35D/M47I/V68M/A71G/R94L CD80 IgV-Fc (Fc fusion, not shown: a dimerising Fc or GST)
chain: B1 chain with H18Y, R33Q, I38M, L47I, A71G, R94L
B16: variant CD80 IgV-Fc H18Y/E35D/M38I/M47L/V68M/L85M (Fc fusion, not shown: small tags and cut ends; a dimerising Fc or GST)
chain: B1 chain with H18Y, R33Q, L85M
B17: CD80 E35D/M47V/N48K/V68M/K89N IgV-Fc, GS(G4S)5 linker (Fc fusion, not shown: a dimerising Fc or GST)
chain: VIHVTKEVKEVATLSCGHNVSVEELAQTRIYWQKDKKMVLTMMSGDVKIWPEYKNRTIFDITNNLSIMILALRPSDEGTYECVVLKYENDAFKREHLAEVTLSVKADGSGGGGSGGGGSGGGGSGGGGSGGGGS
B18: WT CD80 ECD-Fc (Fc fusion, not shown: a dimerising Fc or GST)
chain: VIHVTKEVKEVATLSCGHNVSVEELAQTRIYWQKEKKMVLTMMSGDMNIWPEYKNRTIFDITNNLSIVILALRPSDEGTYECVVLKYEKDAFKREHLAEVTLSVKADFPTPSISDFEIPTSNIRRIICSTSGGFPEPHLSWLENGEELNAINTTVSQDPETELYAVSSKLDFNMTTNHSFMCLIKYGHLRVNQTFNWNTTKQEHFPDN
notes: The label 'H22.6' is not explained; also called WT CD80 ECD-Fc H22.6
B19: A26E/Q27R/E35D/M47L/N48Y/L85Q CD80 IgV-Fc (Fc fusion, not shown: a dimerising Fc or GST)
chain: B1 chain with A26E, Q27R, R33Q, I38M, N48Y, M68V, L85Q
B20: wild-type CD80 ECD-Fc (R&D Systems) (Fc fusion)
chain: B18 chain
notes: This is a commercial protein; also called WT CD80 ECD-Fc (R&D); unmodified CD80-ECD-Fc fusion molecule; not shown: Bought protein (R&D Systems)
B21: variant CD80 IgV-Fc E35D/D46V/M47I/A71G/F92V (Fc fusion, not shown: a dimerising Fc or GST)
chain: B1 chain with R33Q, I38M, D46V, L47I, M68V, A71G, F92V

Target: T1, human CTLA4 (huCTLA4), full-length, stably expressed on CHO cells (human, UniProt P16410 36-223)
T1 construct: whole, on cells
Assay: flow cytometry, CHO cells expressing huCTLA4

T1 sequence (P16410 36-223): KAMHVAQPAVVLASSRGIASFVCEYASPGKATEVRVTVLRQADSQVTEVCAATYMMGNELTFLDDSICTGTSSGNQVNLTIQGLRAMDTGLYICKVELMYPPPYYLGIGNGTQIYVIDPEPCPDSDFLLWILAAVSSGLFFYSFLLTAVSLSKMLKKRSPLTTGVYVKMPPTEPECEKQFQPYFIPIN

| Binder | MFI at 33.3 nM |
| --- | --- |
| B1 | 107 MFI |
| B2 | 178 MFI |
| B3 | 15000 MFI |
| B4 | 96 MFI |
| B5 | 15500 MFI |

Target: T2, human CTLA-4 (human, UniProt P16410 36-223)
T2 construct: whole, on cells; CHO cells stably expressing huCTLA4; also called huCTLA4
Assay: flow cytometry MFI relative to WT CD80 IgV-Fc, CHO/huCTLA-4 cells, 33.3 nM
T2 sequence (P16410 36-223): as above

| Binder | Fold change to WT CD80 |
| --- | --- |
| B6 | 6 fold |
| B7 | 17.1 fold |
| B8 | 12.8 fold |
| B9 | 8.8 fold |
| B10 | 11.9 fold |
| B11 | 16.6 fold |
| B12 | 11.7 fold |

Target: T1, human CTLA4 (huCTLA4), full-length, …
Assay: flow cytometry, CHO cells expressing huCTLA4; MFI against WT CD80 of the table

| Binder | Fold change to WT CD80 |
| --- | --- |
| B1 | 0.1 fold |
| B2 | 0.1 fold |
| B3 | 8.5 fold |
| B4 | 0.1 fold |
| B5 | 8.8 fold |

Target: T3, human CTLA-4 (CTLA4), full-length, expressed on the surface of CHO cells (human, UniProt P16410 36-223)
T3 construct: also called huCTLA4
Assay: flow cytometry, CHO cells stably expressing human CTLA-4, 33.3 nM Fc fusion, PE anti-human Fc

T3 sequence (P16410 36-223): as above

| Binder | MFI at 33.3 nM |
| --- | --- |
| B13 | 226000 MFI |

Target: T4, human PD-L1 (human, UniProt Q9NZQ7 19-290)
T4 construct: whole, on cells; also called huPD-L1
Assay: flow cytometry, CHO cells stably expressing huPD-L1, 33.3 nM, PE anti-human Fc
T4 sequence (Q9NZQ7 19-290): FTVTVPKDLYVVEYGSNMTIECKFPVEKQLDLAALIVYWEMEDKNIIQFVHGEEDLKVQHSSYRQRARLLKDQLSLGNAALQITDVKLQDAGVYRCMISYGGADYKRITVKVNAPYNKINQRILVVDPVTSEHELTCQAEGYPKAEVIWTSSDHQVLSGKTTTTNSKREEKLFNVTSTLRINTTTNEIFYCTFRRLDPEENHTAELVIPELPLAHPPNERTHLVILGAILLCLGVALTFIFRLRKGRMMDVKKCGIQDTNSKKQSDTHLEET

| Binder | MFI at 33.3 nM |
| --- | --- |
| B14 | 8420 MFI |
| B15 | 14500 MFI |

Target: T5, human PD-L1 (huPD-L1), full-length, stably expressed on CHO cells (human, UniProt Q9NZQ7 19-290)
T5 construct: whole, on cells
Assay: flow cytometry; MFI on PD-L1 CHO cells over MFI on Jurkat cells (CD28)

T5 sequence (Q9NZQ7 19-290): as above

| Binder | Ratio of PDL1:CD28 |
| --- | --- |
| B1 | 1110 ratio |
| B2 | 1130 ratio |
| B16 | 215 ratio |
| B3 | 1300 ratio |
| B4 | 325 ratio |
| B5 | 1270 ratio |

Target: T2, human CTLA-4
Assay: flow cytometry, CHO cells stably expressing huCTLA-4, 33.3 nM Fc fusion, PE anti-human Fc

| Binder | MFI at 33.3 nM |
| --- | --- |
| B6 | 8280 MFI |
| B7 | 23600 MFI |
| B8 | 17700 MFI |
| B9 | 12200 MFI |
| B10 | 16500 MFI |
| B11 | 22900 MFI |
| B12 | 16200 MFI |

Target: T6, human CD28 (human, UniProt P10747 19-220)
T6 construct: whole, on cells; Jurkat/IL2 reporter cells, which endogenously express CD28
Assay: flow cytometry, Jurkat/IL2 reporter cells (endogenous CD28), 33.3 nM Fc fusion, PE anti-human Fc

| Binder | MFI at 33.3 nM |
| --- | --- |
| B6 | 1820 MFI |
| B7 | 3230 MFI |
| B8 | 3130 MFI |
| B9 | 5120 MFI |
| B10 | 2550 MFI |
| B11 | 3640 MFI |
| B12 | 2450 MFI |

Target: T5, human PD-L1 (huPD-L1), full-length, …
Assay: flow cytometry, CHO cells expressing huPD-L1; MFI against WT CD80 of the table

| Binder | Fold change to WT CD80 |
| --- | --- |
| B1 | 320 fold |
| B2 | 320 fold |
| B16 | 69.7 fold |
| B3 | 361 fold |
| B4 | 89.7 fold |
| B5 | 362 fold |

Target: T7, human PD-L1 (human, UniProt Q9NZQ7 19-290)
T7 construct: also called huPD-L1; CD274
Assay: flow cytometry on CHO cells stably expressing PD-L1
T7 sequence (Q9NZQ7 19-290): as above

| Binder | MFI at 33.3 nM |
| --- | --- |
| B17 | 22700 MFI |

Target: T8, human CD28 (human, UniProt P10747 19-220)
T8 construct: whole, on cells; Endogenous CD28 of Jurkat/IL2 reporter cells
Assay: flow cytometry, Jurkat/IL2 reporter cells (endogenous CD28), 33.3 nM, PE anti-human Fc

| Binder | MFI at 33.3 nM |
| --- | --- |
| B18 | 30 MFI |
| B19 | 78 MFI |
| B15 | 1900 MFI |

Target: T6, human CD28
Assay: flow cytometry MFI relative to WT CD80 IgV-Fc, Jurkat cells (CD28), 33.3 nM

| Binder | Fold change to WT CD80 |
| --- | --- |
| B6 | 17.8 fold |
| B7 | 31.6 fold |
| B8 | 30.6 fold |
| B9 | 50.2 fold |
| B10 | 25 fold |
| B11 | 35.7 fold |
| B12 | 24 fold |

Target: T9, human PD-L1 (human, UniProt Q9NZQ7 19-290)
T9 construct: whole, on cells; CHO cells stably expressing huPD-L1; also called huPD-L1
Assay: flow cytometry MFI relative to WT CD80 IgV-Fc, CHO/huPD-L1 cells, 33.3 nM
T9 sequence (Q9NZQ7 19-290): as above

| Binder | Fold change to WT CD80 |
| --- | --- |
| B6 | 165 fold |
| B7 | 393 fold |
| B8 | 204 fold |
| B9 | 330 fold |
| B10 | 290 fold |
| B11 | 408 fold |
| B12 | 318 fold |

Target: T9, human PD-L1
Assay: flow cytometry, CHO cells stably expressing huPD-L1, 33.3 nM Fc fusion, PE anti-human Fc

| Binder | MFI at 33.3 nM |
| --- | --- |
| B6 | 27300 MFI |
| B7 | 64900 MFI |
| B8 | 33600 MFI |
| B9 | 54500 MFI |
| B10 | 47900 MFI |
| B11 | 67300 MFI |
| B12 | 52400 MFI |

Target: T5, human PD-L1 (huPD-L1), full-length, …
Assay: flow cytometry, CHO cells expressing huPD-L1

| Binder | MFI at 33.3 nM |
| --- | --- |
| B1 | 16500 MFI |
| B2 | 16500 MFI |
| B16 | 3590 MFI |
| B3 | 18600 MFI |
| B4 | 4620 MFI |
| B5 | 18600 MFI |

Target: T10, human CTLA-4 (human, UniProt P16410 36-223)
T10 construct: whole, on cells; also called huCTLA4
Assay: flow cytometry, CHO cells stably expressing huCTLA4, 33.3 nM, PE anti-human Fc
T10 sequence (P16410 36-223): as the sequence (P16410 36-223) above

| Binder | MFI at 33.3 nM |
| --- | --- |
| B14 | 8910 MFI |

Target: T9, human PD-L1
Assay: flow cytometry, MFI on CHO/huPD-L1 cells divided by MFI on Jurkat cells (CD28), 33.3 nM

| Binder | Ratio of PDL1:CD28 |
| --- | --- |
| B6 | 15 ratio |
| B7 | 20.1 ratio |
| B8 | 10.7 ratio |
| B9 | 10.6 ratio |
| B10 | 18.8 ratio |
| B11 | 18.5 ratio |
| B12 | 21.4 ratio |

Target: T11, human CD28, endogenously expressed on Jurkat/IL2 reporter cells (human, UniProt P10747 19-220)
T11 construct: This is the endogenous CD28 of Jurkat cells
Assay: flow cytometry, Jurkat/IL2 reporter cells (endogenous CD28), 33.3 nM Fc fusion, PE anti-human Fc

| Binder | MFI at 33.3 nM |
| --- | --- |
| B20 | 7630 MFI |
| B13 | 300 MFI |
| B21 | 7540 MFI |
